Molecular target: microtubules
Assay: co-sedimentation

Sequence of C. elegans KMN network containing KNL-1SD and the MIS-12SD complex (Q17635 whole entry, looked up): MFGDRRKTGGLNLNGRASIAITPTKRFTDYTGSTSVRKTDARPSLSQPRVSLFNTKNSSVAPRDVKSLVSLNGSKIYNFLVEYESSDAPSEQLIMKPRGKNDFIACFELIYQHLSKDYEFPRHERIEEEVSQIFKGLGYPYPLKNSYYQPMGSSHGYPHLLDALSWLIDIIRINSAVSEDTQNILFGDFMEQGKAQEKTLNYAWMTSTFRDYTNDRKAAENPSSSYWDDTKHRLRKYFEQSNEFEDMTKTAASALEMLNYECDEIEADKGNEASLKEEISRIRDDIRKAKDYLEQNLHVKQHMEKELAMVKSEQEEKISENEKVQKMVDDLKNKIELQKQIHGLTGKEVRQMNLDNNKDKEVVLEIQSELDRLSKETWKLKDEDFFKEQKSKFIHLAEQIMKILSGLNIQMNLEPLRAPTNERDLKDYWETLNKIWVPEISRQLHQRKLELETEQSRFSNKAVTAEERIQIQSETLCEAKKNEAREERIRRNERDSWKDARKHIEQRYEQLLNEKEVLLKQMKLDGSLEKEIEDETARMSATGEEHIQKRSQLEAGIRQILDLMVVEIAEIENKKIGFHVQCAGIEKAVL
Sequence of C. elegans KMN network containing KNL-1SD and the MIS-12SD complex (P34278 whole entry, looked up): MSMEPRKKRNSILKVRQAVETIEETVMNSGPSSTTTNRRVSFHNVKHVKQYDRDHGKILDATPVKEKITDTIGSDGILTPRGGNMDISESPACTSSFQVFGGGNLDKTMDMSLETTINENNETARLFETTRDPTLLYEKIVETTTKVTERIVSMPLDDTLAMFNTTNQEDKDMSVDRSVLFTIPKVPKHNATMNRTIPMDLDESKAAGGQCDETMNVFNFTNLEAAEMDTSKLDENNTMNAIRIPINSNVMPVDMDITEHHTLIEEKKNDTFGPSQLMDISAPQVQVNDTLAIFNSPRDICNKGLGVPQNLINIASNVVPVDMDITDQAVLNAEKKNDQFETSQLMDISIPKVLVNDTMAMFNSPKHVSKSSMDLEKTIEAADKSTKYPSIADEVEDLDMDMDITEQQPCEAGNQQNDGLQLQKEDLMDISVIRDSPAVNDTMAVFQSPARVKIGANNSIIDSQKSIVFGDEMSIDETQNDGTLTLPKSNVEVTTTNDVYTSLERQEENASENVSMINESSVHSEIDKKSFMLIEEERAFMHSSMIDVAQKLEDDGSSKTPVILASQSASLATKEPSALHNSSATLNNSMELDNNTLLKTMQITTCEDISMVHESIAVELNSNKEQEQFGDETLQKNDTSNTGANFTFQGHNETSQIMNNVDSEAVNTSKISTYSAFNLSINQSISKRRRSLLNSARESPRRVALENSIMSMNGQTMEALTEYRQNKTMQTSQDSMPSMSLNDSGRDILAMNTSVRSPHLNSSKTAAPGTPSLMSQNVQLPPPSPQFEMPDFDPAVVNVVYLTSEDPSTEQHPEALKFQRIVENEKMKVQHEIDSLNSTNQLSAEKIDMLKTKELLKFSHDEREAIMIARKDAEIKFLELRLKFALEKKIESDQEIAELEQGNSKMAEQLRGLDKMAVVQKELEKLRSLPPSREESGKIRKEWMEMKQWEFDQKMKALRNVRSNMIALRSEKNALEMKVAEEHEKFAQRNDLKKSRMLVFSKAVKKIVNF
Sequence of C. elegans KMN network containing KNL-1SD and the NDC-80SD complex (Q17635 whole entry, looked up): as the sequence (Q17635 whole entry, looked up) above
Sequence of C. elegans KMN network containing KNL-1SD and the NDC-80SD complex (P34278 whole entry, looked up): as the sequence (P34278 whole entry, looked up) above
Sequence of microtubules (P68363 whole entry, chain 1 of 2): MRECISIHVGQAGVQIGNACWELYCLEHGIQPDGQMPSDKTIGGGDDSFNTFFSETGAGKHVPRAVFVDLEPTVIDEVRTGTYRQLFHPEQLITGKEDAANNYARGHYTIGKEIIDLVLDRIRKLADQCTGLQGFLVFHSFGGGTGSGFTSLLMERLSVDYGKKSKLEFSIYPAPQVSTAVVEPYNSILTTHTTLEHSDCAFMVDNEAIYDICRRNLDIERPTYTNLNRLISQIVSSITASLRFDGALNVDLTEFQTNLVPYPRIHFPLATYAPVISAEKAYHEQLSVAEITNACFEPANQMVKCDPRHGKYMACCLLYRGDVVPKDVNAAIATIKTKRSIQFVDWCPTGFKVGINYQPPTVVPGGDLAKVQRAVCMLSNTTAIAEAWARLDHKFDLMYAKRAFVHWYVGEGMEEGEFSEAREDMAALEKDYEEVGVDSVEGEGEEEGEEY
Sequence of microtubules (A8K068 whole entry, chain 2 of 2, further chain): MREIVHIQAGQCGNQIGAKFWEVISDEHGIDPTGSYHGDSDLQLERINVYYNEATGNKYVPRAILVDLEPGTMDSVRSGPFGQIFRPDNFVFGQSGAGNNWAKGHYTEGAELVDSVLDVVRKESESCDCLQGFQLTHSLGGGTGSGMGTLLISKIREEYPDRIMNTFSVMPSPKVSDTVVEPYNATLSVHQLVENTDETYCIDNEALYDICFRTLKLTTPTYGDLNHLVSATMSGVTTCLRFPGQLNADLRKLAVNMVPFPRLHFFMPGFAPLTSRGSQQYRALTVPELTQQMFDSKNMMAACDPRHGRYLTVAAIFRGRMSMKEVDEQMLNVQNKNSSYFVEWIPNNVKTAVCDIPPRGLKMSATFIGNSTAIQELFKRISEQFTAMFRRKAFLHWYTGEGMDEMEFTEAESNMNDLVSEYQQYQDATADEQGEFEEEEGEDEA

Substance | Kd
C. elegans KMN network containing KNL-1SD (from UniProt P34278 1-1010; Q17635 1-590) (complex) | 2.1 µM
C. elegans KMN network containing KNL-1SD and the MIS-12SD complex (from UniProt P34278 1-1010; Q17635 1-590) | 5.3 µM
C. elegans KMN network containing KNL-1SD and the NDC-80SD complex (from UniProt P34278 1-1010; Q17635 1-590) | 4.9 µM

Source: paper PMC2873218
